Results as given in article PMC9430589.

Legend:
Assay in all cases: EMSA
Details in all cases: EMSA: 20 mM Tris-HCl pH 8.0, 1 mM MgCl2, 20 mM KCl, 10 mM Na phosphate pH 8.0, 10% glycerol, 500 nM heparin, 1 nM RNA, 37 C 1 h (PNPase: TMK, 50 mM Tris-HCl pH …)
[1] = molecular target: T1, RpsA (ribosomal protein S1) (Deinococcus radiodurans R1) (UniProt Q9RSY6)
T1 sequence: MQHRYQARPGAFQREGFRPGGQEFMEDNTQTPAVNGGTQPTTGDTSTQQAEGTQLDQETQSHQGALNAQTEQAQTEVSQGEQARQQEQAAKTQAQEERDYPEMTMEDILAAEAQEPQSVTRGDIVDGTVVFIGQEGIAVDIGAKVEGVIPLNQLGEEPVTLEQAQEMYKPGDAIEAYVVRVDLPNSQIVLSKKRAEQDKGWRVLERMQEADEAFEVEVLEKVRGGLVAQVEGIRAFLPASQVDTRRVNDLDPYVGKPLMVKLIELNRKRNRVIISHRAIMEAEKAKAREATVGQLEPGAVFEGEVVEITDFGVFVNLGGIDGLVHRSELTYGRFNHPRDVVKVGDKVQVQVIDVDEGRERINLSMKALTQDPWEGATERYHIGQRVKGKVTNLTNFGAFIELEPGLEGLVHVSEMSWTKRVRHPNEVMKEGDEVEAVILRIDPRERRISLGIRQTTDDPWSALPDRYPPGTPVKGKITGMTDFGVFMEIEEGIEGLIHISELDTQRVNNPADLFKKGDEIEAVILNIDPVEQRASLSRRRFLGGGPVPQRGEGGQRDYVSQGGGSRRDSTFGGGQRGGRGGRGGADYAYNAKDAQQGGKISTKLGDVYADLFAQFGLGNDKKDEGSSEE

[2] = molecular target: T2, Rho transcription termination factor (Deinococcus radiodurans R1) (UniProt P52153)
T2 sequence: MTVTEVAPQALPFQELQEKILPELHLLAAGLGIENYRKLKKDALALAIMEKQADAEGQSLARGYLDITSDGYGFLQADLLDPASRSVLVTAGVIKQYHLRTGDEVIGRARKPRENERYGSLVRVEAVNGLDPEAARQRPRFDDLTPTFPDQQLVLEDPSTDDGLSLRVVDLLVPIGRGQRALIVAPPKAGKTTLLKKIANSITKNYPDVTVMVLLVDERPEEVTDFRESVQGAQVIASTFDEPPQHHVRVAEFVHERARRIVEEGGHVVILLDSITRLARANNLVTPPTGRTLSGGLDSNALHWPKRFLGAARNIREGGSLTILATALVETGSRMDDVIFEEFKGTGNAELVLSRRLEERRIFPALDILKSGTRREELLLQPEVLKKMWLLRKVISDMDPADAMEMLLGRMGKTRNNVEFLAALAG

[3] = molecular target: T3, RhlB (DEAD box RNA helicase) (Deinococcus radiodurans R1) (UniProt Q9RXH8)
T3 sequence: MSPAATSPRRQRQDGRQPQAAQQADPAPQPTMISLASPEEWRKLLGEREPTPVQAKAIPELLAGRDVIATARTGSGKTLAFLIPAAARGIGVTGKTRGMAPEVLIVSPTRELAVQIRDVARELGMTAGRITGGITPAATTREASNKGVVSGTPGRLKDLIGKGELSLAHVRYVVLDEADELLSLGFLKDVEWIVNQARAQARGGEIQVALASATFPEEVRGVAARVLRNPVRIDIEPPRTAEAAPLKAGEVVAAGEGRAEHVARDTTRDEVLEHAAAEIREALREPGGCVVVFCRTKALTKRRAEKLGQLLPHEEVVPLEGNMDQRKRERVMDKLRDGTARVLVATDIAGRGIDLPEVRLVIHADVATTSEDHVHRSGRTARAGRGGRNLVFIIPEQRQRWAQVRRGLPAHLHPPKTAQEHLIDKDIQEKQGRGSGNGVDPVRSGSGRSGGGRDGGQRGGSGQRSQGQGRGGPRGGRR

## NNNGNNNNNGNNNNNGNNNNNGNN [8-oxoG x1 24-mer (random N, degenerate)]
[1]; 8-oxoG at position 16
  Kd: 1710 nM
[2]; 8-oxoG at position 16
  Kd: 1880 nM
[3]; 8-oxoG at position 16
  Kd: 383 nM

## NNNGNNNNNGNNNNNGNNNNNGNN [8-oxoG x2 24-mer (random N, degenerate)]
[3]; 8-oxoG at positions 16, 22
  Kd: 355 nM

## NNNGNNNNNGNNNNNGNNNNNGNN [8-oxoG x3 24-mer (random N, degenerate)]
[3]; 8-oxoG at positions 10, 16, 22
  Kd: 351 nM

## NNNGNNNNNGNNNNNGNNNNNGNN [8-oxoG x4 24-mer (random N, degenerate)]
[3]; 8-oxoG at positions 4, 10, 16, 22
  Kd: 341 nM

## NNNGNNNNNGNNNNNGNNNNNGNN [Ctrl 24-mer (random N, degenerate)]
[1]
  Kd: 5440 nM
[2]
  Kd: 3940 nM
[3]
  Kd: 3010 nM
